Residue numbers refer to the chain shown, from its start. Numbers in names are those of the source. ≈ marks a conversion by molar mass, not a printed value. Where “and” joins values, the source holds several entries; their conditions need not be identical. Identical values can stand only once.
What was measured:
[1] = Maximum soluble concentration in media; format: physicochemical; details: yeast culture media, aqueous buffer
genomic URA3 gene = test: Fluctuation tests of the genomic URA3 gene in the presence of TP-DNAP1 variants; format: cell-based, S. cerevisiae; details: URA3 locus, strain harbouring p1 and the TP-DNAP1 variant
Experimental: Fluctuation tests of the genomic URA3 gene were performed to determine genomic per-base substitution rates, as previously described (Ravikumar et al., 2014). Fluctuation data were analyzed by the maximum likelihood method, as described for large-scale p1 fluctuation tests. Phenotypic mutation rates were divided by the target size for loss of function of URA3 via base pair substitution (Lang et al., 2008), to yield per-base substitution rates. 95% confidence intervals were similarly scaled by these factors. All data related to genomic URA3 fluctuation tests are fully described in Table 5.

p1-encoded leu2 (Q180*) [2] = test: Large-scale p1 fluctuation tests of p1-encoded leu2 (Q180*), per-base substitution rate; format: cell-based, S. cerevisiae; details: for Mutation rate (s.p.b.): per-base substitution rate, p1-encoded leu2 (Q180*)
Procedure, shortened: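 Yeast OR-Y24 carrying p1-encoded leu2 (Q180*) with individual TP-DNAP1 variants; 36-48 replicates (3-16 for highly error-prone variants), LEU2 revertants scored without leucine. Rates by maximum likelihood, normalized to cells per culture, p1 copy number (flow cytometry) and 2.33 reversion routes.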

p1 = p1 copy number by p1-encoded mKate2 fluorescence; format: cell-based, S. cerevisiae; details: sustained by TP-DNAP1 variant
Procedure, shortened: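 Copy number was inferred from p1-encoded mKate2 fluorescence in saturated OR-Y24 cultures (triplicate), calibrated linearly against qPCR of p1 leu2 relative to genomic LEU3.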

p1-encoded leu2 (Q180*) [3] = test: qPCR measurement of p1-encoded leu2 (Q180*) copy number; format: cell-based, S. cerevisiae; details: qPCR-determined p1 copy number, OR-Y24 strains
Experimental: A calibration curve was established to correlate p1 copy number, determined via quantitative PCR (qPCR), with fluorescence of p1-encoded mKate2 (Table 1). Five TP-DNAP1 variants representing a wide range of copy numbers were transformed into ORY24 and passaged until w.t. p1 was displaced. The five OR-Y24 strains were grown to saturation, diluted 1:10,000 to mimic p1 fluctuation tests, and grown in triplicate 100 μL cultures and duplicate 40 mL cultures. 100 μL saturated cultures were subject to fluorescence measurement of mKate2 (ex/em=561 nm/620 nm, bandwidth=15 nm) on a flow cytometer (Invitrogen Attune NxT). Whole-cell DNA extracts were prepared from 40 mL cultures and used as templates for qPCR measurement of p1-encoded leu2 (Q180*), as described previously (Ravikumar et al., 2014). p1-encoded LEU2 was PCR amplified with qPCR-Leu2F and qPCR Leu2R; and genomic LEU3 was PCR amplified with qPCR-Leu3F and qPCR-Leu3R using SyBR Green (Fisher Scientific) master mix.

p2-encoded leu2* = test: p2 leu2* fluctuation tests in GA-Y021 (p2 mutation rate reporter strain); format: cell-based, S. cerevisiae; details: GA-Y021, noncognate polymerase in trans, mutual orthogonality experiment
Procedure, shortened: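 Yeast GA-Y021 carrying wt TP-DNAP2 plus variants in trans; replicate cultures grown 48 h at 30° C in pH 5.8 SC dropout, spot-plated on leucine-free medium, colonies counted after 5 days. m by p0 method (six replicates) or Ma-Sandri-Sarkar MLE (36–48 replicates), normalized to titer, p2 copy number (mKate2) and 2.33 bp target.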

p1-encoded leu2* = test: p1 leu2* fluctuation tests in AR-Y304 (p1 mutation rate reporter strain, mutual orthogonality); format: cell-based, S. cerevisiae; details: AR-Y304, polymerase in trans
Description: Strains for testing mutual orthogonality were generated by transforming a panel of CEN6/ARS4 vectors encoding TP-DNAP1 or TP-DNAP2 variants into two base strains, AR-Y304 and GA-Y021. AR-Y304 (Ravikumar et al., 2014, Nature Chemical Biology, 10:175-177) contains recombinant p1 encoding mKate2, URA3 and leu2* without disturbing the native TP-DNAP1 ORF. Similarly, GA-Y021 encodes recombinant p2 that replaces ORF1 with mKate2, URA3 and leu2* without disturbing the native TP-DNAP2 ORF.
To precisely measure p1 and p2 per-base substitution mutation rates, several modifications were made to the small-scale protocol. First, 36 replicates were performed for reconfirmation of candidate TP-DNAP2 mutators, and 48 replicates for genomic and mutual orthogonality experiments. Titers were also determined for each strain after spot plating by pooling the residual volume from 4 replicates and plating dilutions on YPD. The expected number of LEU2 functional mutants (m) was determined by the Ma-Sandri-Sarkar maximum likelihood estimator (as calculated by the FALCOR tool and corrected for partial plating (Foster, 2006, Methods Enzymol, 409:195-213; Sarkar et al., 1992, Genetica, 85:173-179; Hall et al., 2009, Bioinformatics, 25:1564-1565). The mean mKate2 fluorescence was determined from 50,000 event counts on Attune™ NxT Flow Cytometer and converted to p2 copy number by using a calibration curve. To determine per-base substitution rates, the corrected m was normalized to the average cell titer, the p2 copy number, and the target size for functional leu2* reversion (2.33 bp). 95% confidence intervals were similarly scaled.
To test whether the replication mechanisms of p1 and p2 are mutually orthogonal in vivo, p1 and p2 mutation rates were measured in the presence of a panel of TP-DNAP1 and TP-DNAP2 variants with varying mutation rates. Changes in p1 or p2 mutation rate induced by TP-DNAP variants would therefore signal a degree of cross-replication between TP-DNAP1/p1 and TP-DNAP2/p2, if any. A panel of six polymerases was introduced on CEN6/ARS4 vectors into two separate base strains, AR-Y304 (p1 mutation rate reporter strain) and GA-Y021 (p2 mutation rate reporter strain), encoding mKate2, URA3, and leu2* on either p1 or p2, respectively. Included in this panel were TP-DNAP1^WT and two error-prone TP-DNAP1 variants found in previous screens: TP-DNAP1^1777K, L900S and TP-DNAP1^L477V, L640Y, I777K, W814N. Also included were TP-DNAP2^WT and the error-prone TP-DNAP2^S370Q and TP-DNAP2^Y424Q variants found in this work. In AR-Y304 and GA-Y021, both p1 and p2 still encode their native wt TP-DNAP's. Any contribution to replication by a third TP-DNAP encoded in trans is monitored by detecting changes in linear plasmid mutation rate. Importantly, these experiments afford each DNAP an opportunity to replicate its native plasmid and lose its attached TP, becoming “spent” and perhaps more likely to replicate its noncognate linear plasmid through DNAP exchange (Klassen and Meinhardt, 2007, Linear Protein-Primed Replicating Plasmids in Eukaryotic Microbes, in Microbial Linear Plasmids, pp 1 87-226. Springer, Berlin, Heidelberg). The presence of TP-DNAP1^WT or TP-DNAP2^WT in trans had no effect on their noncognate linear plasmids' mutation rate. […] Likewise, p1 mutation rate was unaltered in the presence of mutagenic TP-DNAP2^S370Q and TP-DNAP2^Y424Q, which increased p2 mutation rate by 29- and 16-fold, respectively (FIG. 9). Thus, TP-DNAP1 replicates p1 with at least 870-fold specificity over p2, while TP-DNAP2 targets p2 with at least 29-fold specificity over p1. The level of mutual orthogonality measured here is limited by the error-rates of DNAPs used, especially that of TP-DNAP2 variants.

## CCc1nc(N)nc(N)c1-c1ccc(Cl)cc1 [pyrimethamine]
[1]
  solubility: 3000 µM (≈ 746 µg/mL)

B1: TP-DNAP1-4-1: TP-DNAP1 variant (V574F, I777K, L900S), encoded by SEQ ID NO:10 (protein, listed as Kluyveromyces lactis)
chain: MDYKDKALNDLRNVYADFDSLPLDFRQILIKDRATLLQKEDVEKKILERQEDAKKYAEYLKQSEIPERISLPNIKRHKGVSISFEETSEDMVLEPRPFIFDGLNIRCFRRETIFSLKNKILNMVKESSSFKNVSRQSVSFMYFKIFNKGKVIASTKSVNIYEDKIDERLEDLCNNFDDVLKKIIDVTYGYESLFVSETYSYVIFYAKSIYFPQPRCVNNWGNNIPNILTFDSFKLFTANKNNVSCIKQCSRFLWQKDFNTLEEMIEYKNGNICIVTPQLHINDVRDIKSFNDIRLYSESPIKTFSVIDNTITYLFYFKEHLGVIFNITKSRHDRRVTKFSPLSKFSDVKNITVCFDIESYFDPEKESNQVNIPFICCASIIYNKVIGNIVDFEGRDCVAQMIEYVVDICGELNISSVELIAHNGGGYDFHYILSSMYNPAAIKNILIRNNSFISFNFAHDGVKFSVKDSYSFLLCSLANASKAFLNEETFKKTDFPHHDLKTADDLYKVYKEWSSVNTEINHVVEKEKLLITSEHIVNFTKNDKSKTLIEWSKDYCRNDVLVLSKVWLEFKNAFEDIFNCELVDQTMTLAGLSYKLFQANMPFDVELRHPNKEDYFNMREALIGGRCISVNGIYKDVLCLDVKSLYPASMAFYDQPYGSFKRVSSRPKDELGIYYVRVTPNRNNKSNFFPIRSHNKITYNNFEESTYIAWYTNVDIDIGLSEGHNIEYIPFDSYGNIGYSWSKKGKIFEKYIKDVLYKLKIKYEKQNNKVKRNVIKKIMNSLWGKFAQKWVNFEYFIKSEDDIDFESEEAYKIWDTDFMLIKKIKESTYSSKPIQNGVFTLSWARYHMKSIWDAGAKEGAECIYSDTDSIFVHKEHFKKNAKFMLNGLKVPIIGSEVGQSELECEFDKLLCAGKKQYMGFYTYFQDGKPCIKEKKRFKGIPSNYIIPELYAHLLSGADKEAKIQFLKFRREWGSVKGYIENKTVKAT
Genomic URA3 gene
  Yeast genomic substitution mutation rate: 1.76 × 10^−10 s.p.b.
p1-encoded leu2 (Q180*) [2]; p1 replication by TP-DNAP1 variant
  p1 mutation rate: ~7×10^−6 s.p.b.
p1-encoded leu2 (Q180*) [2]; measurements taken after 90 generations, I777K, L900S
  Mutation rate (s.p.b.): 7.58 × 10^−6 s.p.b. and 6.87 × 10^−6 s.p.b. and 7.71 × 10^−6 s.p.b.
p1
  p1 copy number: ~5

B2: Y431H, L640Y, I777K, W814N: TP-DNAP1 variant, encoded by SEQ ID NO:8 (protein, listed as Kluyveromyces lactis)
chain: B1 chain with Y431H, F574V, L640Y, W814N, S900L
Genomic URA3 gene
  Yeast genomic substitution mutation rate: 2.68 × 10^−10 s.p.b.
p1-encoded leu2 (Q180*) [2]; measurements taken after 90 generations
  Mutation rate (s.p.b.): 2.33 × 10^−6 s.p.b. and 4.29 × 10^−6 s.p.b. and 3.24 × 10^−6 s.p.b.

B3: L474W, L640Y, I777K, W814N: TP-DNAP1 variant, encoded by SEQ ID NO:9 (protein, listed as Kluyveromyces lactis)
chain: B1 chain with L474W, F574V, L640Y, W814N, S900L
Genomic URA3 gene
  Yeast genomic substitution mutation rate: 2.17 × 10^−10 s.p.b.
p1-encoded leu2 (Q180*) [3]; L640Y, I777K
  Average leu2 (Q180*) copy number per cell: 8.63 and 11.1
p1-encoded leu2 (Q180*) [2]; large-scale fluctuation test
  Mutation rate (s.p.b.): 4.03 × 10^−6 s.p.b. and 2.74 × 10^−6 s.p.b.

B4: I777K, L900S: TP-DNAP1 variant, encoded by SEQ ID NO:7 (protein, listed as Kluyveromyces lactis)
chain: B1 chain with F574V
p2-encoded leu2*
  change in p2 mutation rate by TP-DNAP1: no statistically significant change
p1-encoded leu2 (Q180*) [3]
  Average leu2 (Q180*) copy number per cell: 22.5 and 38.6
p1-encoded leu2*
  fold increase of p1 mutation rate: 380 fold

B5: I777K: TP-DNAP1 variant, encoded by SEQ ID NO:3 (protein)
chain: B1 chain with F574V, S900L
p1-encoded leu2 (Q180*) [3]
  Average leu2 (Q180*) copy number per cell: 45.8 and 54.1
